This note sets out measurements from US20090118185A1 (UNIVERSITY OF ROCHESTER, published 2009).

Experiment [1] concerns the target T1, human activated protein C (human, UniProt P04070 43-197; P04070 212-461). In words: cell-based or functional assay.
The target in experiment [2] is T1, human activated protein C. In words: cell-based or functional assay. This is another data set of the same source.

T1 sequence (P04070 43-197, chain 1 of 2): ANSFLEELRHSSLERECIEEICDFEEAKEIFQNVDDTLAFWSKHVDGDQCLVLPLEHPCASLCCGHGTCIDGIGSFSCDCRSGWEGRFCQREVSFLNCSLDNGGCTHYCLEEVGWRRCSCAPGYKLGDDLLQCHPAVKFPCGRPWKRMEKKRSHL
T1 sequence (P04070 212-461, chain 2 of 2): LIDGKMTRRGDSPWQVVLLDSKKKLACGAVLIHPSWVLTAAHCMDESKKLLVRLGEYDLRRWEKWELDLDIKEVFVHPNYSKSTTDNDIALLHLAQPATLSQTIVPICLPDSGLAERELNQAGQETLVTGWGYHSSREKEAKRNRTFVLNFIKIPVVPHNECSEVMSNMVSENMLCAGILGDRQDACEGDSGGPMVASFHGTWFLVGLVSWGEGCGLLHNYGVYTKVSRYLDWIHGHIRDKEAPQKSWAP

B1: WT factor VIIIa (B-domainless recombinant human factor VIII activated by thrombin) (other)
chain 1: ATRRYYLGAVELSWDYMQSDLGELPVDARFPPRVPKSFPFNTSVVYKKTLFVEFTVHLFNIAKPRPPWMGLLGPTIQAEVYDTVVITLKNMASHPVSLHAVGVSYWKASEGAEYDDQTSQREKEDDKVFPGGSHTYVWQVLKENGPMASDPLCLTYSYLSHVDLVKDLNSGLIGALLVCREGSLAKEKTQTLHKFILLFAVFDEGKSWHSETKNSLMQDRDAASARAWPKMHTVNGYVNRSLPGLIGCHRKSVYWHVIGMGTTPEVHSIFLEGHTFLVRNHRQASLEISPITFLTAQTLLMDLGQFLLFCHISSHQHDGMEAYVKVDSCPEEPQLRMKNNEEAEDYDDDLTDSEMDVVRFDDDNSPSFIQIR
chain 2: SVAKKHPKTWVHYIAAEEEDWDYAPLVLAPDDRSYKSQYLNNGPQRIGRKYKKVRFMAYTDETFKTREAIQHESGILGPLLYGEVGDTLLIIFKNQASRPYNIYPHGITDVRPLYSRRLPKGVKHLKDFPILPGEIFKYKWTVTVEDGPTKSDPRCLTRYYSSFVNMERDLASGLIGPLLICYKESVDQRGNQIMSDKRNVILFSVFDENRSWYLTENIQRFLPNPAGVQLEDPEFQASNIMHSINGYVFDSLQLSVCLHEVAYWYILSIGAQTDFLSVFFSGYTFKHKMVYEDTLTLFPFSGETVFMSMENPGLWILGCHNSDFRNRGMTALLKVSSCDKNTGDYYEDSYEDISAYLLSKNNAIEPR
chain 3: SFQKKTRHYFIAAVERLWDYGMSSSPHVLRNRAQSGSVPQFKKVVFQEFTDGSFTQPLYRGELNEHLGLLGPYIRAEVEDNIMVTFRNQASRPYSFYSSLISYEEDQRQGAEPRKNFVKPNETKTYFWKVQHHMAPTKDEFDCKAWAYFSDVDLEKDVHSGLIGPLLVCHTNTLNPAHGRQVTVQEFALFFTIFDETKSWYFTENMERNCRAPCNIQMEDPTFKENYRFHAINGYIMDTLPGLVMAQDQRIRWYLLSMGSNENIHSIHFSGHVFTVRKKEEYKMALYNLYPGVFETVEMLPSKAGIWRVECLIGEHLHAGMSTLFLVYSNKCQTPLGMASGHIRDFQITASGQYGQWAPKLARLHYSGSINAWSTKEPFSWIKVDLLAPMIIHGIKTQGARQKFSSLYISQFIIMYSLDGKKWQTYRGNSTGTLMVFFGNVDSSGIKHNIFNPPIIARYIRLHPTHYSIRSTLRMELMGCDLNSCSMPLGMESKAISDAQITASSYFTNMFATWSPSKARLHLQGRSNAWRPQVNNPKEWLQVDFQKTMKVTGVTTQGVKSLLTSMYVKEFLISSSQDGHQWTLFFQNGKVKVFQGNQDSFTPVVNSLDPPLLTRYLRIHPQSWVHQIALRMEVLGCEAQDLY
Take B1: the “Inactivation (nM FVIIIa/min/nM APC)” value in experiment [1] was 5.4 nM FVIIIa/min/nM APC.

B2: 336(P1′-P3′)562 factor VIIIa mutant (other)
chain 1: ATRRYYLGAVELSWDYMQSDLGELPVDARFPPRVPKSFPFNTSVVYKKTLFVEFTVHLFNIAKPRPPWMGLLGPTIQAEVYDTVVITLKNMASHPVSLHAVGVSYWKASEGAEYDDQTSQREKEDDKVFPGGSHTYVWQVLKENGPMASDPLCLTYSYLSHVDLVKDLNSGLIGALLVCREGSLAKEKTQTLHKFILLFAVFDEGKSWHSETKNSLMQDRDAASARAWPKMHTVNGYVNRSLPGLIGCHRKSVYWHVIGMGTTPEVHSIFLEGHTFLVRNHRQASLEISPITFLTAQTLLMDLGQFLLFCHISSHQHDGMEAYVKVDSCPEEPQLRGNQNEEAEDYDDDLTDSEMDVVRFDDDNSPSFIQIR
chain 2: SVAKKHPKTWVHYIAAEEEDWDYAPLVLAPDDRSYKSQYLNNGPQRIGRKYKKVRFMAYTDETFKTREAIQHESGILGPLLYGEVGDTLLIIFKNQASRPYNIYPHGITDVRPLYSRRLPKGVKHLKDFPILPGEIFKYKWTVTVEDGPTKSDPRCLTRYYSSFVNMERDLASGLIGPLLICYKESVDQRGNQIMSDKRNVILFSVFDENRSWYLTENIQRFLPNPAGVQLEDPEFQASNIMHSINGYVFDSLQLSVCLHEVAYWYILSIGAQTDFLSVFFSGYTFKHKMVYEDTLTLFPFSGETVFMSMENPGLWILGCHNSDFRNRGMTALLKVSSCDKNTGDYYEDSYEDISAYLLSKNNAIEPR
chain 3: SFQKKTRHYFIAAVERLWDYGMSSSPHVLRNRAQSGSVPQFKKVVFQEFTDGSFTQPLYRGELNEHLGLLGPYIRAEVEDNIMVTFRNQASRPYSFYSSLISYEEDQRQGAEPRKNFVKPNETKTYFWKVQHHMAPTKDEFDCKAWAYFSDVDLEKDVHSGLIGPLLVCHTNTLNPAHGRQVTVQEFALFFTIFDETKSWYFTENMERNCRAPCNIQMEDPTFKENYRFHAINGYIMDTLPGLVMAQDQRIRWYLLSMGSNENIHSIHFSGHVFTVRKKEEYKMALYNLYPGVFETVEMLPSKAGIWRVECLIGEHLHAGMSTLFLVYSNKCQTPLGMASGHIRDFQITASGQYGQWAPKLARLHYSGSINAWSTKEPFSWIKVDLLAPMIIHGIKTQGARQKFSSLYISQFIIMYSLDGKKWQTYRGNSTGTLMVFFGNVDSSGIKHNIFNPPIIARYIRLHPTHYSIRSTLRMELMGCDLNSCSMPLGMESKAISDAQITASSYFTNMFATWSPSKARLHLQGRSNAWRPQVNNPKEWLQVDFQKTMKVTGVTTQGVKSLLTSMYVKEFLISSSQDGHQWTLFFQNGKVKVFQGNQDSFTPVVNSLDPPLLTRYLRIHPQSWVHQIALRMEVLGCEAQDLY
For the molecule B2, the “Inactivation (nM FVIIIa/min/nM APC)” value in experiment [1] is 0.9 nM FVIIIa/min/nM APC. Besides, in experiment [2], the “fold reduction of inactivation rate compared to WT factor VIIIa” value lay in the range of 6 to 11 fold.

B3: 562(P4-P2)336 factor VIII mutant (procofactor) (other)
chain 1: ATRRYYLGAVELSWDYMQSDLGELPVDARFPPRVPKSFPFNTSVVYKKTLFVEFTVHLFNIAKPRPPWMGLLGPTIQAEVYDTVVITLKNMASHPVSLHAVGVSYWKASEGAEYDDQTSQREKEDDKVFPGGSHTYVWQVLKENGPMASDPLCLTYSYLSHVDLVKDLNSGLIGALLVCREGSLAKEKTQTLHKFILLFAVFDEGKSWHSETKNSLMQDRDAASARAWPKMHTVNGYVNRSLPGLIGCHRKSVYWHVIGMGTTPEVHSIFLEGHTFLVRNHRQASLEISPITFLTAQTLLMDLGQFLLFCHISSHQHDGMEAYVKVDSCPEEPQLRMKNNEEAEDYDDDLTDSEMDVVRFDDDNSPSFIQIRSVAKKHPKTWVHYIAAEEEDWDYAPLVLAPDDRSYKSQYLNNGPQRIGRKYKKVRFMAYTDETFKTREAIQHESGILGPLLYGEVGDTLLIIFKNQASRPYNIYPHGITDVRPLYSRRLPKGVKHLKDFPILPGEIFKYKWTVTVEDGPTKSDPRCLTRYYSSFVNMERDLASGLIGPLLICYKESPQLRGNQIMSDKRNVILFSVFDENRSWYLTENIQRFLPNPAGVQLEDPEFQASNIMHSINGYVFDSLQLSVCLHEVAYWYILSIGAQTDFLSVFFSGYTFKHKMVYEDTLTLFPFSGETVFMSMENPGLWILGCHNSDFRNRGMTALLKVSSCDKNTGDYYEDSYEDISAYLLSKNNAIEPR
chain 2: SFQKKTRHYFIAAVERLWDYGMSSSPHVLRNRAQSGSVPQFKKVVFQEFTDGSFTQPLYRGELNEHLGLLGPYIRAEVEDNIMVTFRNQASRPYSFYSSLISYEEDQRQGAEPRKNFVKPNETKTYFWKVQHHMAPTKDEFDCKAWAYFSDVDLEKDVHSGLIGPLLVCHTNTLNPAHGRQVTVQEFALFFTIFDETKSWYFTENMERNCRAPCNIQMEDPTFKENYRFHAINGYIMDTLPGLVMAQDQRIRWYLLSMGSNENIHSIHFSGHVFTVRKKEEYKMALYNLYPGVFETVEMLPSKAGIWRVECLIGEHLHAGMSTLFLVYSNKCQTPLGMASGHIRDFQITASGQYGQWAPKLARLHYSGSINAWSTKEPFSWIKVDLLAPMIIHGIKTQGARQKFSSLYISQFIIMYSLDGKKWQTYRGNSTGTLMVFFGNVDSSGIKHNIFNPPIIARYIRLHPTHYSIRSTLRMELMGCDLNSCSMPLGMESKAISDAQITASSYFTNMFATWSPSKARLHLQGRSNAWRPQVNNPKEWLQVDFQKTMKVTGVTTQGVKSLLTSMYVKEFLISSSQDGHQWTLFFQNGKVKVFQGNQDSFTPVVNSLDPPLLTRYLRIHPQSWVHQIALRMEVLGCEAQDLY
Turning to B3, the “fold increase of rate of generation of the A2c fragment compared with WT factor VIII” value in experiment [2] came to 6 fold.

B4: 562(P4-P3′)336 factor VIII mutant (procofactor) (other)
chain 1: ATRRYYLGAVELSWDYMQSDLGELPVDARFPPRVPKSFPFNTSVVYKKTLFVEFTVHLFNIAKPRPPWMGLLGPTIQAEVYDTVVITLKNMASHPVSLHAVGVSYWKASEGAEYDDQTSQREKEDDKVFPGGSHTYVWQVLKENGPMASDPLCLTYSYLSHVDLVKDLNSGLIGALLVCREGSLAKEKTQTLHKFILLFAVFDEGKSWHSETKNSLMQDRDAASARAWPKMHTVNGYVNRSLPGLIGCHRKSVYWHVIGMGTTPEVHSIFLEGHTFLVRNHRQASLEISPITFLTAQTLLMDLGQFLLFCHISSHQHDGMEAYVKVDSCPEEPQLRMKNNEEAEDYDDDLTDSEMDVVRFDDDNSPSFIQIRSVAKKHPKTWVHYIAAEEEDWDYAPLVLAPDDRSYKSQYLNNGPQRIGRKYKKVRFMAYTDETFKTREAIQHESGILGPLLYGEVGDTLLIIFKNQASRPYNIYPHGITDVRPLYSRRLPKGVKHLKDFPILPGEIFKYKWTVTVEDGPTKSDPRCLTRYYSSFVNMERDLASGLIGPLLICYKESPQLRMKNIMSDKRNVILFSVFDENRSWYLTENIQRFLPNPAGVQLEDPEFQASNIMHSINGYVFDSLQLSVCLHEVAYWYILSIGAQTDFLSVFFSGYTFKHKMVYEDTLTLFPFSGETVFMSMENPGLWILGCHNSDFRNRGMTALLKVSSCDKNTGDYYEDSYEDISAYLLSKNNAIEPR
chain 2: SFQKKTRHYFIAAVERLWDYGMSSSPHVLRNRAQSGSVPQFKKVVFQEFTDGSFTQPLYRGELNEHLGLLGPYIRAEVEDNIMVTFRNQASRPYSFYSSLISYEEDQRQGAEPRKNFVKPNETKTYFWKVQHHMAPTKDEFDCKAWAYFSDVDLEKDVHSGLIGPLLVCHTNTLNPAHGRQVTVQEFALFFTIFDETKSWYFTENMERNCRAPCNIQMEDPTFKENYRFHAINGYIMDTLPGLVMAQDQRIRWYLLSMGSNENIHSIHFSGHVFTVRKKEEYKMALYNLYPGVFETVEMLPSKAGIWRVECLIGEHLHAGMSTLFLVYSNKCQTPLGMASGHIRDFQITASGQYGQWAPKLARLHYSGSINAWSTKEPFSWIKVDLLAPMIIHGIKTQGARQKFSSLYISQFIIMYSLDGKKWQTYRGNSTGTLMVFFGNVDSSGIKHNIFNPPIIARYIRLHPTHYSIRSTLRMELMGCDLNSCSMPLGMESKAISDAQITASSYFTNMFATWSPSKARLHLQGRSNAWRPQVNNPKEWLQVDFQKTMKVTGVTTQGVKSLLTSMYVKEFLISSSQDGHQWTLFFQNGKVKVFQGNQDSFTPVVNSLDPPLLTRYLRIHPQSWVHQIALRMEVLGCEAQDLY
For B4, the “fold increase of rate of generation of the A2c fragment compared with WT factor VIII” value in experiment [2] came to 27 fold.
